The values that follow come from patent publication EP2420830B1 (Forschungsverbund Berlin e.V., dated 2016).

Numbering of substitutions follows the chain as printed.

Experiment [1] addresses T1, GGA3 (from HeLa cell lysate) (human (HeLa cells), UniProt Q9NZ52 1-723).
T1 sequence (looked up): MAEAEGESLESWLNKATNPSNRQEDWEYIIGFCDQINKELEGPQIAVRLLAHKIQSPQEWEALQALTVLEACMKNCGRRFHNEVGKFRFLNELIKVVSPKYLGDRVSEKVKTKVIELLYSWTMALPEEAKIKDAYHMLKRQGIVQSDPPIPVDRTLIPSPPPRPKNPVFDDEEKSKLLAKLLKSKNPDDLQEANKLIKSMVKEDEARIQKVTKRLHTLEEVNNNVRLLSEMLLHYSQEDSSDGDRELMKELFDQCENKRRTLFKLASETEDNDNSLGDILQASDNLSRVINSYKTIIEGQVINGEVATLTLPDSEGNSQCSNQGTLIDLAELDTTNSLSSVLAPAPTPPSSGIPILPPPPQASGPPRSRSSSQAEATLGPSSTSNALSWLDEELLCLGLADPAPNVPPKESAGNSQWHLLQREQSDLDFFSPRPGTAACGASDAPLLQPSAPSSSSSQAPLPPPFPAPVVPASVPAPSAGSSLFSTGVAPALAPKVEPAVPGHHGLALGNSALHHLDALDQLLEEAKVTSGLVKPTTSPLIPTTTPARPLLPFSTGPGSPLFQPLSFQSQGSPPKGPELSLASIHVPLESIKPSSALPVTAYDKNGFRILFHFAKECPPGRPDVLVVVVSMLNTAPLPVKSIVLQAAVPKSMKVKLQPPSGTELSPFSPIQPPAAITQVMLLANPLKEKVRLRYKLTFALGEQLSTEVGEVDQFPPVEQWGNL
Briefly: GST pull-down from HeLa cell extract, immunoblot. (Immunoblotting shows a protein as a band on a membrane.)

Experiment [2] has as its target T2, GGA2 (from HeLa cell lysate) (human (HeLa cells), UniProt Q9UJY4 1-613).
T2 sequence (looked up): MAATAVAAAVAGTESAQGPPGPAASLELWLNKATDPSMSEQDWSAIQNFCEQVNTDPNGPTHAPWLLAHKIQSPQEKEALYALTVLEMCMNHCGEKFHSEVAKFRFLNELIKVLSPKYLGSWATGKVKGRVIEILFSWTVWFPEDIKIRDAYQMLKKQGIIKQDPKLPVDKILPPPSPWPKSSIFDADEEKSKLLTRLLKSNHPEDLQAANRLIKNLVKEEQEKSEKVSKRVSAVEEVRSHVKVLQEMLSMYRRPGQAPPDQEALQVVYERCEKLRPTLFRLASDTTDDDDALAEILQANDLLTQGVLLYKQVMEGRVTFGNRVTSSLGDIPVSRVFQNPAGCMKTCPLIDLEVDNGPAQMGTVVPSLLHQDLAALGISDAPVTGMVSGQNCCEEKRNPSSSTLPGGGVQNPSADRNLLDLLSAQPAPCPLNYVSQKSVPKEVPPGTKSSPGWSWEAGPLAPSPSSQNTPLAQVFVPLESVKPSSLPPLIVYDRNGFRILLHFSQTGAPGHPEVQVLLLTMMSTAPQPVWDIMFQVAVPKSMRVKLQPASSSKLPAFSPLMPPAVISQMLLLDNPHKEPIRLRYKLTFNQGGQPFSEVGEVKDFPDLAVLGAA
The experiment can be described thus: GST pull-down from HeLa cell extract, immunoblot.

B1: GST fusion protein of the human CIC-7 N-terminus, mutant combining LL23/24AA and LL68/69AA (2xLLAA) (other)
chain: MANVSKKVSWSGRDRDDEEAAPAARRTARPGGGTPLLNGAGPGAARQSPRSALFRVGHMSSVELDDEAADPDMDPPHPFPKEIPHNEKLLSLKYESLDYDNSENQLFLEEERRINHTAFRTVEIKR
notes: not shown: N-terminal GST tag of pGEX-5X-1 and the vector linker
As for B1, the binding result in experiment [1] and in experiment [2] was “no binding” throughout.

B2: GST fusion protein of the human CIC-7 N-terminus, mutant LL68/69AA (other)
chain: B1 chain with A23L, A24L
notes: as for B1
B2: the binding result in experiment [1] and in experiment [2] was “no binding” each time.
